Experimental data from article PMC8982406.

T1: full-length RLIM protein (wild type; mapping and mutation co-IPs), Q9NVW2
T1 chain: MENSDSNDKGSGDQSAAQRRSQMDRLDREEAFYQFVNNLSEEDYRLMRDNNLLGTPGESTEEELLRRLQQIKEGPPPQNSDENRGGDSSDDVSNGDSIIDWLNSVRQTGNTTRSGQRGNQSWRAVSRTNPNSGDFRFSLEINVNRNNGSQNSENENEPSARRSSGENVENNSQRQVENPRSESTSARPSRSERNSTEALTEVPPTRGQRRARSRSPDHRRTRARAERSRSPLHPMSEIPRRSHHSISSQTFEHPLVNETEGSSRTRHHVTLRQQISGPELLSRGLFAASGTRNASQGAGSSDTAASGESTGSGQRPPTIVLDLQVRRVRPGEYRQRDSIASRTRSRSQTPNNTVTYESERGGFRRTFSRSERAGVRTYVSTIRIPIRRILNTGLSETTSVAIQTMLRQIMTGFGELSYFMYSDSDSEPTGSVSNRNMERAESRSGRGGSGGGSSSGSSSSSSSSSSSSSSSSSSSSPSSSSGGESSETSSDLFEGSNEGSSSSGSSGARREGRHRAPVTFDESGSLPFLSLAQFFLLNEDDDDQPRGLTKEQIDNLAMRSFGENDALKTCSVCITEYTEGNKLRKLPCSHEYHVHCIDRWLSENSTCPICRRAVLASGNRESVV


Experiments:
[1] = target: full-length RLIM protein (wild type; mapping and mutation co-IPs) (UniProt Q9NVW2); assay: co-IP (IP: FLAG, IB: myc), blot quantification; conditions: ZC4H2-myc + RLIM-FLAG, MG132 +; parent: 1.00
[2] = target: T1, full-length RLIM protein (wild type; …); assay: co-IP (IP: FLAG, IB: myc), blot quantification; conditions: chain shown with the change; ZC4H2-myc + RLIM-FLAG, MG132 +; parent: 1.00

| Molecule | ratio to parent [1] | ratio to parent [2] |
| --- | --- | --- |
| ZC4H2 (wild type; mapping and mutation co-IPs) (from UniProt Q9NQZ6) A201S | 0.13 | – |
| ZC4H2 (wild type; mapping and mutation co-IPs), Q9NQZ6 A200V (protein) MADEQEIMCKLESIKEIRNKTLQMEKIKARLKAEFEALESEERHLKEYKQEMDLLLQEKMAHVEELRLIHADINVMENTIKQSENDLNKLLESTRRLHDEYKPLKEHVDALRMTLGLQRLPDLCEEEEKLSLDYFEKQKAEWQTEPQEPPIPESLAAAAAAAQQLQVARKQDTRQTATFRQQPPPMKACLSCHQQIHRNVPICPLCKAKSRSRNPKKPKRKQDE | – | 0.18 |
| ZC4H2 (wild type; mapping and mutation co-IPs), Q9NQZ6 R213W (protein) MADEQEIMCKLESIKEIRNKTLQMEKIKARLKAEFEALESEERHLKEYKQEMDLLLQEKMAHVEELRLIHADINVMENTIKQSENDLNKLLESTRRLHDEYKPLKEHVDALRMTLGLQRLPDLCEEEEKLSLDYFEKQKAEWQTEPQEPPIPESLAAAAAAAQQLQVARKQDTRQTATFRQQPPPMKACLSCHQQIHRNAPICPLCKAKSRSWNPKKPKRKQDE | – | 0.19 |
| ZC4H2 (wild type; mapping and mutation co-IPs), Q9NQZ6 V63L (protein) MADEQEIMCKLESIKEIRNKTLQMEKIKARLKAEFEALESEERHLKEYKQEMDLLLQEKMAHLEELRLIHADINVMENTIKQSENDLNKLLESTRRLHDEYKPLKEHVDALRMTLGLQRLPDLCEEEEKLSLDYFEKQKAEWQTEPQEPPIPESLAAAAAAAQQLQVARKQDTRQTATFRQQPPPMKACLSCHQQIHRNAPICPLCKAKSRSRNPKKPKRKQDE | – | 1.2 |
| ZC4H2 (wild type; mapping and mutation co-IPs), Q9NQZ6 R198Q (protein) MADEQEIMCKLESIKEIRNKTLQMEKIKARLKAEFEALESEERHLKEYKQEMDLLLQEKMAHVEELRLIHADINVMENTIKQSENDLNKLLESTRRLHDEYKPLKEHVDALRMTLGLQRLPDLCEEEEKLSLDYFEKQKAEWQTEPQEPPIPESLAAAAAAAQQLQVARKQDTRQTATFRQQPPPMKACLSCHQQIHQNAPICPLCKAKSRSRNPKKPKRKQDE | – | 0.15 |
